Test results: the DeepSol protein solubility set

Assay: soluble on expression in E. coli; label from the status in PepcDB or PDB records

Sequence | soluble on expression in E. coli
MTSELKNNEEDYNSSSDEDYDPTKDTDFDPKDEIDDQEECEDGIDEEVEHLKNEKQSDDHTSEKANSTEGSVDVDAIFAELTGLAPKPVVNDTSSKNIPKTEERVYPKSAASASNESTNQKVYPKKTETAGTSSESSIVPGKKRVGLLDAAKSLSKRSKISVLEKSDRDWKDFTTQNNLKEDLESHNRGKGGYLNKMDFLNRADNRQFEKERAFRATARKDTGQ | not soluble
MAHHHHHHMATISRRDGRTAREMRGKELRTSDLSQFDGSAWYSQGLTAVTVAINGPTAARQENYRRCTTCIHVNRAARIPQEGGTGRLIMMERRERERCEDGELKQFLTSLVEAIVCLDRFPRCVLEAHVTVLMDDGALFAVASNAIMCALLDAGVPCRSTIAAVSLIMCNPEASGNEGEPEIFLDPTAVEESTDEVRSYASATFVLTNTGGEAVLASRVQARPRSSAYSRPITPKDLSRMFALAAKAAETLFVFFRNCSMALE | not soluble
MSSVVNAAYAEYNGKEKGDQEDPRVLIPQLCRLFYELGWVTGTGGGISLRHGEHIYIAPSGVQKERIQPEDLFVCDIDEKDISCPPPQKKLKKSQCTPPFMNAYTMRGAQAVIHTHSKSAVMATLLFPGKEFRITHQEMIKGIRKGNSGTNFRYDDTLVVPIIENTPEEKDLKERMARAMDMYPDSCAVLVRRHGVYVWGETWEKAKTMCECYDYLFDIAVQMKQSGLDPSAFPTEEKGIV | not soluble
MKLKIVFFGASLAGKSTTVRKLYEILKEKGLVKGEFMSIDTDEKRTLFVEMFLSKIPIDGQEIDFKILTTPGQFRLHPLRKAIMQGVDGLVFTVDSQTGREEINFLVLRETAHVLKDSTWIYTQYPSLFSTTREIFPTHFPLEHHHHHH | not soluble
MIDISVVIPLLNEAESIPELFAWIRRVMNEHGYSYEVIFVDDGSTDGSWSVIERLQAEHPEVKGIKFRRNYGKSAGLQCGFARTQGQVVITMDADLQDSPDEIPELYRMVTEGGYDLVSGWKRKRYDPLFSKNLPSKLFNATARKLSGIKLHDFNCGLKAYRHEVVENIELYNDMHRYIPYLAKSAGFGRIGEKVVQHQARKYGSSKFGISRFFNGYLDLLTLWFISKFGRKPMH | not soluble
AMADTIVAVELDSYPNTDIGDPNYPHIGIDIKSIRSKSTARWNMQTGKVGTVHISYNSVAKRLSAVVSYSGSSSTTVSYDVDLNNVLPEWVRVGLSATTGLYKETNTILSWSFTSKLKTNSIADANSLHFSFNQFSQNPKDLILQGDAFTDSDGNLQLTKVSSSGDPQGNSVGRALFYAPVHIWEKSAVVASFDATFTFLIKSPDREPADGITFFIANTDTSIPSGSGGRLLGLFPDAN | soluble
MKRTIFLLMSILLLLTACGDGHKQTSSDKEQSEHKDNHNKNQVKQIATDKKVQGDNYRTILPFKESQARGLLQDNMANGYNGEDFESGLLELSKEIFPTNKYLYQDGQYLDKKTINAYLDPKYTKKEIDKMSEKEKKSKNANENLGLNPSHNGETDEEKIAKNSPAYLSNILEQDFYGNSDSKGKNIKGMTIGLAMNSVYYYKKEKDGETFSKDLSDKEIEKQGKQMASEMLSRLRENSDLKDIPIHFAIYKQSSQDSITPGEFIVGTTVEEGKTKINSWDNINEKAALIPSSTAADYDETLNNNFKQFNDNLQSYFSNFTQAVGKVKFVNKKAKQLTVDLPIDYYGQAETIGITQYVTEQAEKYFDKLDEYEIRIKDGNTPRALISKTKDDKEPQVHIYHN | not soluble
GTTKHSKLLILGSGPAGYTAAVYAARANLQPVLITGMEKGGQLTTTTEVENWPGDPNDLTGPLLMERMHEHATKFETEIIFDHINKVDLQNRPFRLNGDNGEYTCDALIIATGASARYLGLPSEEAFKGRGVSACATCDGFFYRNQKVAVIGGGNTAVEEALYLSNIASEVHLIHRRDGFRAEKILIKRLMDKVENGNIILHTNRTLEEVTGDQMGVTGVRLRDTQNSDNIESLDVAGLFVAIGHSPNTAIFEGQLELENGYIKVQSGIHGNATQTSIPGVFAAGDVMDHIYRQAITSAGTGCMAALDAERYLDGLADAK | soluble
MRLTEEEVQALLEKADGWKLADERWIVKKYRFQDYLQGIEFVRRIAAISENANHHPFISIDYKLITVKLSSWRAKGLTKLDFDLAKQYDEVYNQMKQGEGE | soluble
MHSEKSVMMEPMTNPKNDPRNPDLLLDFEEVEFTRGGKTLVGPITWQVELDERWVILGPNGAGKTTLIRMAAAEEFPSKGALWIMGERIGKTDMRDLRAMIGVSSSALGNRIPTNEKVLDLVISAGYAILGRWREEYDKWDHDRAIEILEQVGAYHLADQTWGTLSEGERKRVLVARALMTNPELLLLDEPTAGMDLGGREDLVGYLAQLAMDPDAPAMVMITHHVEEIPAGFTHALLLDEGEVVSQGLIDEVLTSANLTKAFHQPIKVDKIDGRYFARRQRTARSHRR | not soluble
IHDDPVEQRDADVAMEKSHRARNERKKNKNHTPSEHPAAAAMHEEKKKVSIEDLVAAVVIEDDPQPEPDVVPTPADDDVMDIVSAALDRAYEEDPDEPSGSDYLPLEEKPQTYAEAVEEFERSPRRKRKTRGNSVSDVPPRKADFEKPEPQPEPEVVVEKVSSRGRRRAVRRTVVEATPEVVAPTETVESSRGRRRAVRKKMAPQPVQTEAVVEDKHEVSAPSQGGRGRRRASRRAPRR | not soluble
MKKYEIIFKKLEEDILKGHYQMGDYLPPEMELSQTYASSRDTVRKALQLLTKAGFIKTVQGRGSQIIKRERINFPVSQLTSYQELVKQLQMNVKTNVIAIDKLIVDEKLTKLTGFENKGLVWRITRQRVIDGVASILDTDYLDKALIPHMTREIAEHSIYDYLENQLKLDIAYAQKIITIDQVSQKDKILLDLDSENHVVSVKSKVYLSNQQQFQFTESRHKLEKFRFVDFARRHRD | not soluble
MVLAALVLVLEGEGLPEPLGLRGFFYGLLREVAPEVHDQGENPFALGFGGREGAAWARVSLLVEGLYARLAPRLYALEGEEVRLGPPFRVRAVLQEGHPWAGVSTYPRLFQGPPSRDLALRFASPTFFRRKGVHYPVPEPRLVLESLLRRLEAFGPLKAPEGVREALLERTTVRSLEGRTLPARTEVDTAGFVGRVVYHLPRATEEEALWLSALGRFAFYSGVGAKTSLGYGRARAESA | soluble
SNVNIDSEQLFTEEKPKDYAQPEVLCHTFELLSNLHKLLPNRTVEVLHSYRSEEDKRKCEKPEFSGIEKILARHQLPKEINLSPKPSHVPSWKRKIINNISGNWKKCRLWQKSIYEPPMGTIIVRWTKKNLQPSEDLKSVIQRLSALGPIISVTPCGRESAVVVFRDAASACKAVSAFQTMSADSMFHCSWQHRFMSKNKTWSRRYPSKIHAEKKEKHP | soluble
MPQLSIIIPLFNSCNFISRALQSCINQTLKDIEILIIDDKSKDNSLNMVLEFAKKDPRIKIFQNEENLGTFASRNLGVLHSSSDFIMFLDSDDFLTLDACKIALKEMKKGFDLLCFDAFVHRVKTKQFYRFKQDEFFNQKEFLEFLSKQRHFCWSVWAKCFRKDIILKSFEKIKIDERLSYGEDVLFCYVYFMFCEKIAVFKTCIYHYEFNPNGRYENKNKEILWQNYQDKKKSNELVKKLCLNFKNNDFHKKLFEVLEKEEFDLQRRVDEARNLEHHHHHH | soluble
MGSDKIHHHHHHMKVIKFGGSSLASGIQLNKVFQLVAEDSERKIVVVSAPGKRFKDDTKVTDLLIDCAAKALLGEDTSELFEAVIARYAGIALDTGMDDAIITQIRADLQKTISSDKSDPDKFLDRMKASGEDNNAKLIAAYFKFKGLNANYVNPKDAGLFVTDEHASAQVLPESYDRLFALREREGIIVFPGFFGYTKDGEISTFSRSGSDITGAIVANGAQAELYENFTDVDAVYAVNPAIVKNPKKVLELTYREMRELSYAGFSVFHDEALIPAFHAGIPVHIKNTNNPDSCGTRVVHERENNNGPVVGIASDDGFCSIYISKYLMNREIGFGRKVLQILEDAGLNYEHMPSGIDDLTIIIRENQFGEDTERTIMTRLKEELNADQVIMQHGISLIMVVGEAMRHNVGITSRASKALSDAKVNIEMINQGSSEVSIMFGVKEEQENTAVRALYNEFFSEVLV | not soluble
NGSKTDLGLLSKNSADFLGSSKRSLAGFDTPFSPDNLQYLEKETDYDQNFKSFTEKFKDEKITNNQLGIVDIYNLFSGFHKSVKSTVDLMNQLQKQVEAANAIFPVDDAFVKLPKVPTELFKLVDDNVFPKLNPKGLNISDNIAALFERYNLKSIELKNFDLAFLRKADVIIKDKVRYNFEM | not soluble
